Assay results taken from patent US20220135701A1 (Genentech, published 2022).
Blank lines part the entries; values can stand above or below the binder they belong to.

Tests used:
[1] = target: T1, HuMER.Ig1 (G76-G195) (human, UniProt Q12866 76-195); experiment: SPR BIAcore T200, Ab captured, 25C
T1 construct: also called human MerTK Ig-like 1 domain
T1 sequence: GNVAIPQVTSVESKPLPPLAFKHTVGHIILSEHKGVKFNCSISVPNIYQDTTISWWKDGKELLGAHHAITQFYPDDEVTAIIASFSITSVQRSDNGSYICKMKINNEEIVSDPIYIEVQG
Method in brief: (§1)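 Rabbit antibody captured to ~100 RU; MerTK domain injected as 3-fold dilutions (0.4–100 nM) in HBS-EP pH 7.4 at 25 °C, 30 μl/min. kon and koff from 1:1 Langmuir fit; KD = koff/kon.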

[2] = target: T2, HuMER.Ig1&2 (G76-P284) (human, UniProt Q12866 76-284); experiment: SPR BIAcore T200, Ab captured, 25C
T2 construct: also called human MerTK Ig-like 1&2 domains
T2 sequence: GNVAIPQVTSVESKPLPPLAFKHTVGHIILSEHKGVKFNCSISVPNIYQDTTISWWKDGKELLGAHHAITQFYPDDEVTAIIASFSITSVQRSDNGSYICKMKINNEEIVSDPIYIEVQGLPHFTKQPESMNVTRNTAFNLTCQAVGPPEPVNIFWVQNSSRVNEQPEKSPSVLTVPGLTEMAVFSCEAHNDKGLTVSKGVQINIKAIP
Method in brief: as §1

[3] = target: T3, MuMER (E23-S496) (mouse, UniProt Q60805 23-496); experiment: SPR BIAcore T200, Ab captured, 25C
T3 construct: range 23-496; also called mouse MerTK extracellular domain
T3 sequence (looked up): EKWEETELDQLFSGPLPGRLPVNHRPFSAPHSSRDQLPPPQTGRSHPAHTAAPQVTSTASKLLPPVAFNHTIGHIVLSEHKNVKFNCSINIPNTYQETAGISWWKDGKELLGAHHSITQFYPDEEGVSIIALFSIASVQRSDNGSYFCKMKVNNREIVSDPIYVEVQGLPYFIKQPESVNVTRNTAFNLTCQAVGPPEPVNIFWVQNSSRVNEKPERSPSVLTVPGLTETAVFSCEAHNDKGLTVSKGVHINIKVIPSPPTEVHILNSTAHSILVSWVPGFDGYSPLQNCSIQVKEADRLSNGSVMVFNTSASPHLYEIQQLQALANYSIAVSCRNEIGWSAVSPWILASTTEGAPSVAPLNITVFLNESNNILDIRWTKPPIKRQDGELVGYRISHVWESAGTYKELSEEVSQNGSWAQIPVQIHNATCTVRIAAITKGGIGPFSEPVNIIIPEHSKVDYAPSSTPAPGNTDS
Method in brief: as §1

[4] = target: T4, MuMER.Ig1 (A70-G190) (mouse, UniProt Q60805 70-190); experiment: SPR BIAcore T200, Ab captured, 25C
T4 construct: range 70-190; also called mouse MerTK Ig-like 1 domain
T4 sequence (looked up): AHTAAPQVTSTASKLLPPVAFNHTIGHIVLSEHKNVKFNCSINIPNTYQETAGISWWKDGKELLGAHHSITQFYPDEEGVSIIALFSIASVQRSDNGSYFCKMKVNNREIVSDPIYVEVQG
Method in brief: as §1

[5] = target: T5, MuMER.Ig1&2 (A70-P279) (mouse, UniProt Q60805 70-279); experiment: SPR BIAcore T200, Ab captured, 25C
T5 construct: range 70-279; also called mouse MerTK Ig-like 1&2 domains
T5 sequence (looked up): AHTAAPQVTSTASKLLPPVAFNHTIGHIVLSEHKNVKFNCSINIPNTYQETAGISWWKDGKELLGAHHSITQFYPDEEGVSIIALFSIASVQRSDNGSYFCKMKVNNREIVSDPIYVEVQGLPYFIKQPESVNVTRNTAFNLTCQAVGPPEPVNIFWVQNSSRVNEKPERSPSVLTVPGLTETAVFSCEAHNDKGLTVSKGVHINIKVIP
Method in brief: as §1

[6] = target: T6, HuMER (R26-A499) (human, UniProt Q12866 26-499); experiment: SPR BIAcore T200, Ab captured, 25C
T6 construct: Extracellular domain with both Ig-like and both fibronectin-like domains; also called human MerTK extracellular domain
T6 sequence: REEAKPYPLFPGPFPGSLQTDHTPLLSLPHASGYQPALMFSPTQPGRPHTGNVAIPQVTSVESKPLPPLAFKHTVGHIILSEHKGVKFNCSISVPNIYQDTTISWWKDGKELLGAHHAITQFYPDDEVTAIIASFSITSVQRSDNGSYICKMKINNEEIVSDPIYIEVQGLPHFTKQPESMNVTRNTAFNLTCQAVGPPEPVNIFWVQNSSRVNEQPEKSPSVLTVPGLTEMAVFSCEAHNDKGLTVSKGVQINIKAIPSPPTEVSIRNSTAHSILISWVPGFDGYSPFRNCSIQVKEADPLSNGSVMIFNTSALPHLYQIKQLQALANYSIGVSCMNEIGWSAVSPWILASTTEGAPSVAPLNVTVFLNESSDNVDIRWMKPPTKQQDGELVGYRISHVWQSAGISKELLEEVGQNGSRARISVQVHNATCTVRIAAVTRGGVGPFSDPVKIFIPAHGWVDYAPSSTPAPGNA
Method in brief: as §1

[7] = target: T7, human MerTK (human, UniProt Q12866 26-499); experiment: SPR BIAcore T200, Ab captured, 25C
T7 construct: also called HuMER
T7 sequence: T6 sequence
Method in brief: (§2)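 Rabbit or humanized antibody captured to ~100 RU; MerTK injected as 3-fold dilutions from 0.4 nM to 100 nM in HBS-EP (HEPES pH 7.4) at 30 μl/min, at 25° C. or 37° C. kon and koff fitted to a 1:1 Langmuir model; KD = koff/kon.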

[8] = target: T8, cynomolgus monkey MerTK (cynomolgus monkey, UniProt A0A2K5V1H9 32-505); experiment: SPR BIAcore T200, Ab captured, 25C
T8 construct: Soluble analyte in SPR; also called Cyno MerTK
T8 sequence: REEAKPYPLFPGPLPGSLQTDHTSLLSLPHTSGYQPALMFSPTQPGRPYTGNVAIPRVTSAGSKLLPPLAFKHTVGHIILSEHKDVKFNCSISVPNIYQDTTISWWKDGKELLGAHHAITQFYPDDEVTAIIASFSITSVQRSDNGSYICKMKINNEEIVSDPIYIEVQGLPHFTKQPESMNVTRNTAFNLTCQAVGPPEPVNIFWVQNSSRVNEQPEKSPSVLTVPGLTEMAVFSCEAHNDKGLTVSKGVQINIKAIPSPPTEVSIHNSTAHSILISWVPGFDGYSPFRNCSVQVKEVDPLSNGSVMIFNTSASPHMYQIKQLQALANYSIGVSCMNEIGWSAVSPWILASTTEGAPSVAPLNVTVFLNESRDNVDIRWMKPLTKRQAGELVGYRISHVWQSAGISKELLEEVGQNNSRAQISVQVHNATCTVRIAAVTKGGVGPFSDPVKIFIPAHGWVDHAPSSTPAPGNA
Method in brief: as §2

[9] = target: T9, mouse MerTK (mouse, UniProt Q60805 23-496); experiment: SPR BIAcore T200, Ab captured, 25C
T9 construct: also called MuMER
T9 sequence (looked up): T3 sequence (looked up)
Method in brief: as §2

[10] = target: T10, mouse MerTK on mouse macrophages (mouse, UniProt Q60805 19-994); experiment: cell-based or functional assay
T10 sequence (looked up): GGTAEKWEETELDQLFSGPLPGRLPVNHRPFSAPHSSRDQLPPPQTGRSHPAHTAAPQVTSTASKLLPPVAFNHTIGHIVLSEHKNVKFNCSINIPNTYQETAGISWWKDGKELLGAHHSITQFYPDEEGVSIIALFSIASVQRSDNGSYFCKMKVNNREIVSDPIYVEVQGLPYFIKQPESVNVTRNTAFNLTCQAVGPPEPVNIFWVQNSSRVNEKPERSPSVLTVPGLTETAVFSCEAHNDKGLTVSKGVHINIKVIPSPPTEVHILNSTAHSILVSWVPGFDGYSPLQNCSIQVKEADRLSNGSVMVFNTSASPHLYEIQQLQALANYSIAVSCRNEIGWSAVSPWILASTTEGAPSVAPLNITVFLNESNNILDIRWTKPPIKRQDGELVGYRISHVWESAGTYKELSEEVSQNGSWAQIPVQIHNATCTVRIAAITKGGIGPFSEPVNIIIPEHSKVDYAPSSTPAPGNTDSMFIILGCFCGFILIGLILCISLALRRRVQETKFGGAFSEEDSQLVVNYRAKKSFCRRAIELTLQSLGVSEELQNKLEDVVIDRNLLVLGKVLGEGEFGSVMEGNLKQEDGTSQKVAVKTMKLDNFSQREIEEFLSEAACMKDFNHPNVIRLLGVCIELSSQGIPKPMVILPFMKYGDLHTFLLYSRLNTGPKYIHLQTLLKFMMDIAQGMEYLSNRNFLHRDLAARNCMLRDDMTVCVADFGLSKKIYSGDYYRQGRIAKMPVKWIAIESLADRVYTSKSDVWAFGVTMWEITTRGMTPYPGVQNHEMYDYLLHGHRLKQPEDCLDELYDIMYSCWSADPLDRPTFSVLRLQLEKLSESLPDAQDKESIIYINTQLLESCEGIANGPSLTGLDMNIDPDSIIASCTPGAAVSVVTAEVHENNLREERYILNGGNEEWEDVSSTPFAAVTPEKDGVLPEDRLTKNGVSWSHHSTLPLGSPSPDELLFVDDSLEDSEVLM

[11] = target: T10, mouse MerTK on mouse macrophages; experiment: cell-based or functional assay; remark: listed apart in the source
[12] = target: T7, human MerTK; experiment: SPR BIAcore T200, Ab captured, 37C
Method in brief: as §2

[13] = target: T8, cynomolgus monkey MerTK; experiment: SPR BIAcore T200, Ab captured, 37C
Method in brief: as §2

B1: Rbt18G7 (antibody, V domains shown)
VH: QSLEESGGRLVTPGTPLTLTCTVSGIDLSSYALGWVRQAPGKGLEYIGIISSTGTTYYATWAKGRFTISKTSSTTVDLKITGPTTEDTATYFCARGAYAGYVAFGPYYFHIWGPGTLVTISL
VL: DIVMTQTPASVEAAVGGTVTIKCQASQSISNFLAWYQQKPGQPPKVLIYAASHLASGVPSRFKGSGSGTQFTLTISDLECADAATYYCQSYFYSSTSIYNAFGGGTEVVVR
notes: Recombinant rabbit monoclonal antibody, Expi293, protein A purified
Kd [1]: 0.5 nM
Kd [2]: 21 nM
Kd [3]: 1.7 nM
Kd [4]: 0.2 nM
Kd [5]: 1.9 nM
Kd [6]: 2.3 nM
Kd [7]: 2.3 nM
Kd [8]: 4.3 nM
Kd [9]: 1.7 nM

B5: Rbt12H4 (antibody, V domains shown)
VH: QSVEESGGRLVTPGTPLTVTCTVSGFSLSVYGMGWVRQAPGKGLEYIGFINNVGNTYYASWAKGRFTISKTSTTVDLKITSPTTEDTATYFCAKGGGGDWGYFNIWGPGTLVTVSL
VL: DVVMTQTPASVEAAVGGTVTIKCQASQSIGNALAWYQQKPGQRPKLLIYAASNLASGVPSRFAGSGSGTQFTLTISDLECADAATYYCQTYYAINRYGGAFGGGTEVVVK
notes: as for B1
Kd [1]: 16.7 nM
Kd [2]: 92 nM
Kd [3]: 8.5 nM
Kd [4]: 2.2 nM
Kd [5]: 11 nM
Kd [6]: 18 nM
Kd [7]: 18 nM
Kd [8]: 13.9 nM
Kd [9]: 8.5 nM

Further lines, results first:

IC50 (nM), efferocytosis by mouse macrophages, Average [10]: 0.19 nM
fold decrease in phagocytic clearance of apoptotic thymocytes by peritoneal macrophages, against control anti-gp120 [11]: ~8 fold
fold potency in inhibiting mouse macrophage phagocytosis, against h10F7.v16 [11]: 4.8 fold
B2: anti-MerTK 14C9 (mIgG2a LALAPG) (antibody, V domains shown)
VH: QSVEESGGRLVTPGTPLTLTCTVSGIDLSANTMNWVRQAPGKGLEWIGIFTATGSTYYATWVNGRFTISKTSTTVDLKITSPTTEDTATYFCARSGSGSSSGAFNIWGPGTLVTVSL
VL: DPVLTQTPASVSEPVGGTVTIKCQASQSISSSLAWYQQKPGQPPKLLIYAASILASEISSRFKGSRSGTEFTLTISDLECADAATYYCQCTSYGSLFLGPFGGGTEVVVK

Kd [3]: 0.6 nM
Kd [4]: 0.1 nM
Kd [5]: 0.5 nM
Kd [9]: 0.6 nM
B3: Rbt14C9 (antibody, V domains shown)
VH: B2 VH
VL: B2 VL
notes: as for B1

Kd [1]: 0.3 nM
Kd [2]: 8.8 nM
Kd [6]: 2.9 nM
Kd [7]: 2.9 nM
Kd [8]: 1.8 nM
Kd [12]: 4.9 nM
Kd [13]: 5.9 nM
B4: Rbt13B4 (antibody, V domains shown)
VH: QSVEESGGRLVTPGTPLTLTCTVSGFSLSSYAMGWVRQAPGKGLEWIGIINSYGNTYYANWAKGRFTISRTSTTVDLRMPSLTTEDTATYFCARDPGVSSNLWGPGTLVTVSS
VL: DVVMTQTPASVSEPVGGTVTIKCQASQNIYSGLAWYQQKPGQPPKLLIYGASKLASGVSSRFKGSGSGTEFTLTISDLECADAATYYCQATYYSSNSVAFGGGTEVVVK
notes: Recombinant rabbit monoclonal antibody, Expi293, protein A purified; also called Rb13B4
